In the nanobody polyreactivity screen of Harvey et al. (2022):

assay: yeast display, Sf9 membrane polyspecificity reagent, FACS + sequencing; frameworks hold sequencing errors
Procedure, shortened: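 Galactose induction of a Saccharomyces cerevisiae BJ5465 synthetic nanobody display library ran 36–48 hours. The cells were then stained for 1 hour at 4 °C with 10% biotinylated, detergent-solubilized Sf9 membrane reagent, pulled down on streptavidin microbeads and FACS-sorted into low and high (top ~1%) gates on expression and reagent-binding fluorescence. Labels for polyreactivity follow the gate of origin.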

| Sequence | polyreactivity (PSR sort gate) |
| --- | --- |
| QVKLVESGGGLVQAGGSLRLSCGASVGTFYRYSMVWFRQAPGKERELVAVISKRGGTTYYADSVKRRFTISRDNANNTVNLQMNSLKPEDTAVYYCADRPYYWGQGTQVTVSS | high polyreactivity |
| QVQLVESGGGLVQAGGSLRLSCAASGFTFGYYAMGWYRQAPGKERELVAAIRSSGGSTYYADSVKGRFTISRDNAKNTVYLQMNSLKPEDTAVYYCAVLYGYRSSSRYGYDSWGQGTQVTVSS | high polyreactivity |
| QVQLVESGGGLVQAGGSLRLSCAATGFIFSYYAMGWYRQAPGKERELVATITSGGSTYYADSVKGRFTISRDNAKNTVYLQMNSLKPEDTAVYYCNADWYWRVYWGQGTQVTVSS | high polyreactivity |
| QVQLVESGGGLVQAGGSLRLSCAPSGSTFRLYAMGWYRQAPGKERELVAVISGSGGNTYDADSVKGRFTISRDNAKNTVELQMNSLKPEDTAVDYCAAYSYRDRDDYWGQGTQGTVSS | high polyreactivity |
| QVQLVESGGGLVQAGGSLRLSCAASGRIFSSNAMGSYRQAPGKERELVAGISIRGGSTYYADSVKGRFTISRDNAKNTVYLQMNSLKPEDTAVYYCAKDGRRRRTFDYWGQGTQVTVSS | high polyreactivity |
| QVQLVESGGGLVQAGGSLRLSCAASGFTFYQYAMGSYRQAPGKESEFVATISSGGSTYYADSVKGRFTISRDNAKNTFYLQMNSLIPEDTAVYYCAKVDFIVGYYYWGQGTQVTVSS | low polyreactivity |
| QVQLVESGGGLVQAGGSLRLTCASSGIIFKLYAMGWYRQAPAKESELVAAITYRGGTTYYADSVKGRFTITRDNAKNTVYLQMNSLKPEDTAVYYCAVAVTSYSSKKLYYWGQGTQVTVSS | low polyreactivity |
| QVQLVESGGGLVQAGGSLRLSCAASGRIFKQYAMGWYRQAPGKERELVAAISWDGGSTYYADSVKGRFTISRDNAKNTVYLQMNSLKPEDTAVYDCNKDLYYAYDYWGQGTQVTVSS | low polyreactivity |
| QVQLVESGGGLVQAGGSLRLSCAASGYIFTGNAMGWYRQAPGKERELVAAIDSGGSTYADSVKGRFTISRDNAKNTVYLQMNSLKPEDTAVYYCNADQNEDTYLSYYGDYDYWGQGTQVTVTS | low polyreactivity |
| QVQLVESGGGLDQARGSLRLSCAASGSIFGENAMGWYRQAPGKERELVAAISTSGGTTYYADSVKGRFTISRDNAKNTVYLQMNSLKPEDTAVYYCAKPYTSFSPYDYWGQGTQVTVSS | low polyreactivity |
| QVQLVESGGGLVQAGGSLRLSCAASGSTFVYNDMGWYRQAPGKEREFVAVINWSGGRTYADSVKGRFTISRDNAKNTVYLQMNSLKPEDTAVYYCNARRRTGYRPAMDYWGQGTQVTVSS | high polyreactivity |
| QVQLVESGGGLVQAGGSLRLSSAASGLTLRTYAMGWYRQETGQERELVAAITSGGGSTYYADSVKGRFTISRDNSKNTVYLQLNSLNQEDTAFYYCAAKPVVRYVSFGYDYWGQGTDVTVSS | high polyreactivity |
| QVQLVESGGGLVQAGGSLRLSCASSGSTFYFNAMGWSRQAPGKERELVAGNSSGGSTYYADSVKGRFTISRDNAKNTVYLQMNSLKPEDTAVYYCAADSDTFYYTGYDYDYWGQGTQVTVSS | low polyreactivity |
| QVQLVESGGGLVQAGGSLRLSCAASGRIFNGYAMGWYRQAPGKERELVAAINSSGGSTYYADSVKGRFTISRDNAKNTVYLQMNSLKPEDTAVYYCARVSYHYRTYDYWGQGTQVTVSS | high polyreactivity |
| QVQLVESGGGLVQAGGSLRLSCAASGSTFTFYAMGWYRQAPGKERELVAAISGRGGSTYYADSVKGRFTISRDNAMNTVYLQMNSLKPEDTAVYYCAAGWSRVWRRDFGYWGQGTQVTVSS | low polyreactivity |
| QVQLVESGGGLVQAGGSLRLSCAASGSIFADYAMGWSRQAPGKEREFVAAITRSGTSTYYADSVKGRFTISRDNAKNTVYLQMNSLKPEDTAVYYCAKTEVLLYLYTLDYWGQGTQVTVSS | low polyreactivity |
| QVQLVESGGGLVQAGGSLRLSCAASGITFGRNTMGWYRQAPGKERELVAAIDSGGNTYADSVKGRFTISRDNAKNTVYLQMNSLKPEDTAVYYCAVDGGEFSSYGYWGQGTEVTVSS | low polyreactivity |
| QVQLVESGGGLVQAGGSLRLSCAASGSIFFYNVMGWYRQAPGKERELVASISWRGASTYYADSVKGRFTISRDNAKNTVYLQMNSLKPEDTAVYYCAARFGSATRYQTGYYWGQGTQVTVSS | high polyreactivity |
| QVQLVESGVGLVQAGGSLRLSCAASGLTFPWYTMGWNRQAPGKERELVAAINSRGGSTYYADSVKGRFTISRDNAKNTVYLQMNRLKPVDTAVYYCATRSFGRMDYWGQGTQVTVSS | high polyreactivity |
| QVQLVESGGGLVQAGGSLRLTCAASGRILDRYVMGWYRQAPGKERELVAAISQSGRGTYYADSVKGRFTISRDNAKNTVYLQMNSLKPEVTAVYYCAARGTGYHGYGYWGQGSQVTVSS | high polyreactivity |
| QVQLVESGGGLVQAGGSLRLSCAASGRIFRSNVMGWYRQAPGKERELVAAITGRGSSTYYADSVKGRFTISRDNAKNTVYLQMNSLKPEDTAVYYCAKASRYWSLYYWGQGTQVTVSS | high polyreactivity |
| QVQLVESGGGLVQAGGSLRLSCPASGSTFVKNAMGWYRQAPGKERELVAAITARGGSTFYADSVKGRFTISRDNAKNTVYLQMISLTPEDTSVYYCADNGPRTYRLKDDYWGQGTQVTVSS | high polyreactivity |
| QDQLVESGGGLVQAGGSLRLSCAASGIIFYGYAMGWYRQAPGKERQLVAGISSGGSTYYADSVKGRFTISRDNAKNTVYLQMNSLNPEDTAVYYCNAEGGYSYESTDHYRYDYWGLGTQVTVSS | low polyreactivity |
| QVQLVESGGGLVQAGGSLRLSCAASGITFGKNAMVWYRQAPGKEREFDAAISWGGGRTYYADSVKGRFTISRDNAKNTVYLQMNSLKPEDTAVYYCNVGPRAGWYRSNYDYWGQGTQVTVSS | low polyreactivity |
| QVQLVESGGGLVQAGGSLRLSCAASGSIFSSYVMGWYRQAPGKEREVVAAITSRGGSTYYADSVKGRFTISRDNAKNTVYLQMNSLKPEDTAVYYCAKGGTTWYWSGYRSIYFRYDYWGQGTQVTVSS | high polyreactivity |
| QVQLVESGGGLVQAGGSLRLSCAASGSTFSVYAMGWYRQAPGKEMELVATITWNGGRTYYADSVKGRFTISRDNAKNTVYLQMNSLKPEDTAVYYCASPWLKPGNGIYGGYGYWGQGTQVTVSS | high polyreactivity |
| QVQLVESGRGLVQAGGSLRLSCAASGRTFYYYAMGWYRQAPGKERELVAAISRSGTRTYYADSVKGRFTISRDNAKNTVYLQMNSLKPEDTAVYYCAAVGAAGQDNYWGQGTQVTVSS | high polyreactivity |
| QVQLVESGGGLVQAGGSLRLSCAASGIIFTYYAMGWYRQAPGKERELVAAISVSGSSTYYADSVKGRFTISRDNAKNTVYLQMNSLKPEDTAVYYCAARYQWGTRGFGYWGQGTQVTVSS | high polyreactivity |
| QVQLVESGGGLVQAGGRLRLSCAASGRTFRPYAMGWYRQAPGKERELVAAITSGGSTYYADSVKGRFTISRDNAKNTVYFQMNSLKPEDTAVYYCNAKYYYQPPYDYWGQGTQVTVSS | low polyreactivity |
| QVQLVESGGGLVQAGGSLRLSCAASGSTFPFYAMGWYRQAPGKEREFVAVISSSGGSTYYADSVKGRFTISRDNAKNTVYLQMNSLKPEDTAVYYCARSYPGRWYDYWGQGTQVTVSS | high polyreactivity |
